In IntAct's records for PubMed 24997600:

B1: Regulation of nuclear pre-mRNA domain-containing protein 1B (Homo sapiens), Q9NQG5 (parent)
chain: MSSFSESALEKKLSELSNSQQSVQTLSLWLIHHRKHAGPIVSVWHRELRKAKSNRKLTFLYLANDVIQNSKRKGPEFTREFESVLVDAFSHVAREADEGCKKPLERLLNIWQERSVYGGEFIQQLKLSMEDSKSPPPKATEEKKSLKRTFQQIQEEEDDDYPGSYSPQDPSAGPLLTEELIKALQDLENAASGDATVRQKIASLPQEVQDVSLLEKITDKEAAERLSKTVDEACLLLAEYNGRLAAELEDRRQLARMLVEYTQNQKDVLSEKEKKLEEYKQKLARVTQVRKELKSHIQSLPDLSLLPNVTGGLAPLPSAGDLFSTD

Variants of: B1
Conditions: with rpb1_human POLR2A

effect of a mutation on the interaction	Variant
disrupting interaction strength	MSSFSESALEKKLSELSNSQQSVQTLSLWLIHHRKHAGPIVSVWHRELRKAKSNRKLTFLYLANDVIQNSKRKGPEFTREFESVLVDAFSHVAREADEGCKKPLERLLNIWQEASVYGGEFIQQLKLSMEDSKSPPPKATEEKKSLKRTFQQIQEEEDDDYPGSYSPQDPSAGPLLTEELIKALQDLENAASGDATVRQKIASLPQEVQDVSLLEKITDKEAAERLSKTVDEACLLLAEYNGRLAAELEDRRQLARMLVEYTQNQKDVLSEKEKKLEEYKQKLARVTQVRKELKSHIQSLPDLSLLPNVTGGLAPLPSAGDLFSTD [R114A]
